Assay [1] has as its target T1, RBD-His (SinoBiological, 40592-V08H) (SARS-COV-2, UniProt P0DTC2 319-541).
The target of assay [2] is T1, RBD-His (SinoBiological, 40592-V08H). The source holds these as a separate data set.
Assay [3] concerns the target SARS-COV-2 S protein, variant B1.1.7 (Alpha), on MLV pseudotyped particles (SARS-COV-2, UniProt P0DTC2 14-1254). The assay is described as follows: cell-based or functional assay.
For assay [4], the target named is T2, RBD-mFc recombinant protein (Sino Biological, 40592-V05H) (SARS-COV-2, UniProt P0DTC2 319-541).
T2 construct: domain: RBD
The assay is described as follows: BLI (Octet), 1-2G-Fc as load, RBD-mFc as analyte, global fit (FIG. 11A).

Assay [5] has as its target T2, RBD-mFc recombinant protein (Sino …). The assay is described as follows: BLI (Octet), RBD-mFc as load, 1-2G-Fc as analyte, global fit (FIG. 11C).
The target is the same in assay [6].
For assay [7], the target named is T3, S1-hFc recombinant protein (Sino Biological, printed 4059I-V02H) (SARS-COV-2, UniProt P0DTC2 16-685).
In assay [8] the target is T2, RBD-mFc recombinant protein (Sino …). This is another data set of the same source.
The target in assay [9] is T3, S1-hFc recombinant protein (Sino …). This is another data set of the same source.
Assay [10] addresses T1, RBD-His (SinoBiological, 40592-V08H). This is another data set of the same source.
Assay [11] has the same target.
For assay [12] the target is unchanged. The source holds these as a separate data set.

Read-outs that look alike come from different tables or passages of the source.

B1: RBD-1-2G-Fc (Fc fusion)
chain: EVQLVESGGGLVQPGGSLRLSCAASGFSSIVYMGWFRQAPGKGRELVAAIDASGSTTNYPDSVEGRFTISRDNAKRMVYLQMNSLRAEDTAVYYCAIAYFTSPEYVVSQGWGQGTQVTVSS
notes: also called bivalent format of RBD-1-2G
A word on the Kd: it is the equilibrium constant for the complex coming apart. The koff is the rate constant with which the complex falls apart. As usually defined, the kon is the second-order rate constant of association. In [1], B1 displayed a Kd of 1.9 nM. Further, the values for the koff in assay [2], in assay [4] and in assay [5] were 0.00018 s⁻¹, 0.0017 s⁻¹ and 0.0005 s⁻¹, respectively. The kon in [2] amounted to 91000 M⁻¹ s⁻¹; in assay [4] it was 83000 M⁻¹ s⁻¹; in [5] it was 73000 M⁻¹ s⁻¹. Further, in assay [3], the “IC50, pseudotyped particle entry assay, B.1.1.7 particles” value (from here on “IC50, pseudotyped particle entry assay”) was 17.5 nM.

B2: single-domain antibody RBD-1-2G (VHH)
VHH: EVQLVESGGGLVQPGGSLRLSCAASGFSSIVYMGWFRQAPGKGRELVAAIDASGSTTNYPDSVEGRFTISRDNAKRMVYLQMNSLRAEDTAVYYCAIAYFTSPEYVVSQGWGQGTQVTVSS
notes: also called RBD-1-2G Nb; RBD-1-2G nanobody
As for B2, the Kd in [6] amounted to 9.4 nM; in [7], 6.9 nM; in assay [11], 14.3 nM. Moreover, the koff in assay [8] stood at 0.00024 s⁻¹; in assay [9], 0.0002 s⁻¹; in [10], 0.0011 s⁻¹. Besides, the values for the kon in assay [8], in assay [9] and in assay [10] were 25400 M⁻¹ s⁻¹, 29500 M⁻¹ s⁻¹ and 752000 M⁻¹ s⁻¹, respectively. Also, the “IC50, pseudotyped particle entry assay” value in assay [3] is 746 nM.

B3: RBD-1-2G-Tri (bispecific antibody)
chain: EVQLVESGGGLVQPGGSLRLSCAASGFSSIVYMGWFRQAPGKGRELVAAIDASGSTTNYPDSVEGRFTISRDNAKRMVYLQMNSLRAEDTAVYYCAIAYFTSPEYVVSQGWGQGTQVTVSSGGGGSGGGGSGGGGSEVQLVESGGGLVQPGGSLRLSCAASGFSSIVYMGWFRQAPGKGRELVAAIDASGSTTNYPDSVEGRFTISRDNAKRMVYLQMNSLRAEDTAVYYCAIAYFTSPEYVVSQGWGQGTQVTVSSGGGGSGGGGSGGGGSEVQLVESGGGLVQPGGSLRLSCAASGFSSIVYMGWFRQAPGKGRELVAAIDASGSTTNYPDSVEGRFTISRDNAKRMVYLQMNSLRAEDTAVYYCAIAYFTSPEYVVSQGWGQGTQVTVSSHHHHHH
Molecule B3 yielded a Kd in assay [1] of 0.1 nM. In assay [12], this molecule came in with an off-rate (koff) of 7e-05 s⁻¹ and a kon of 600000 M⁻¹ s⁻¹. Also, the “IC50, pseudotyped particle entry assay” value in assay [3] worked out at 0.3 nM.

These data come from US20240401239A1 (US Dept. of Health and Human Services, published 2024).
